Laboratory results: IntAct's records for PubMed 11956200

B1: Mitochondrial import inner membrane translocase subunit Tim8 A (Homo sapiens), O60220 (parent)
chain: MDSSSSSSAAGLGAVDPQLQHFIEVETQKQRFQQLVHQMTELCWEKCMDKPGPKLDSRAEACFVNCVERFIDTSQFILNRLEQTQKSKPVFSESLSD
partner: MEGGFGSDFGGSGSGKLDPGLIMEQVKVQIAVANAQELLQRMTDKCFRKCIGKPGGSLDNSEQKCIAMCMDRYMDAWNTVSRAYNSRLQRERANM

Variants of: B1
Details: with tim13_human TIMM13, Q9Y5L4

effect of a mutation on the interaction | Variant
disrupting interaction strength | C66W
